Data set [1] addresses TwinStrep-CcSir2 protein (TwinStrep-tag fused to the N-terminus of His6-CcSir2) (Caballeronia cordobensis). Put plainly: co-elution from a Heparin column with SDS-PAGE densitometry.
The target of data set [2] is T1, GsSir2;GsAgo (Geobacter sulfurreducens Caccavo (ATCC …, UniProt Q74DF6;Q74DF5 1-587;1-473, |)). Put plainly: EMSA. A general note: A gel shift assay detects complexes by their altered migration in electrophoresis.
Data set [3] addresses T1, GsSir2;GsAgo. Put plainly: EMSA. This is another data set of the same source.
Data set [4] has as its target T1, GsSir2;GsAgo. Put plainly: EMSA. The source holds these as a separate data set.
For a further data set, the target named is GsSir2APAZ;GsAgo (Geobacter sulfurreducens Caccavo (ATCC …, UniProt Q74DF6;Q74DF5 1-587;1-473, R440E;R442E;R517E;R525E;R528E;R531E|)). Put plainly: EMSA.
The target of data set [5] is T2, GsSir2(D230A);GsAgo (Geobacter sulfurreducens Caccavo (ATCC …, UniProt Q74DF6;Q74DF5 1-587;1-473, D230A|)). Put plainly: EMSA.
The target of data set [6] is T2, GsSir2(D230A);GsAgo. Put plainly: EMSA. The source holds these as a separate data set.

Where two headings read alike, the source gives them in different places.

As a reminder, the stoichiometry N is the number of molecules, sites or subunits per partner or assembly. As for “CcAgo protein (short pAgo of the CcSir2/Ago system) (natural protein)”, in data set [1], the stoichiometry N was 1 Sir2:Ago.

As a reminder, the Kd is a measure of binding affinity in units of concentration. The low end stands for a tighter complex, the high end for a looser complex. In the data set with GsSir2;GsAgo [2], ATAATGGTTTCTTAGACGTCGTTTTAGAGCTGTGTTGTTTCG (ssDNA) [ssDNA (TK-49)] had a Kd of 0.033 ± 0.016 nM.

B1: gDNA TK-49 + target ssDNA MZ-949 (dsDNA)
DNA 1: ATAATGGTTTCTTAGACGTCGTTTTAGAGCTGTGTTGTTTCG
DNA 2: CGAAACAACACAGCTCTAAAACGACGTCTAAGAAACCATTAT
modifications: 5'-phosphate on guide
In the data set with GsSir2;GsAgo [3], B1 displayed a Kd of 0.022 ± 0.005 nM.

B2: gDNA TK-49 + target ssRNA MZ-1185 (DNA:RNA)
DNA: B1 DNA 1
RNA: CGAAACAACACAGCUCUAAAACGACGUCUAAGAAACCAUUAU
modifications: 5'-phosphate on guide
As for B2, binding with GsSir2;GsAgo [3] was put at a Kd of 0.252 ± 0.114 nM.

B3: dsDNA (TK-49/MZ-949) (dsDNA)
DNA 1: B1 DNA 1
DNA 2: B1 DNA 2
In turn, B3 yielded an equilibrium dissociation constant (Kd) in the data set with GsSir2;GsAgo [2] of 51 ± 20 nM.

In the data set with GsSir2;GsAgo [2], ATAATGGTTTCTTAGACGTCGTTTTAGAGCTGTGTTGTTTCG (ssDNA, circularised by CircLigase II) [circular ssDNA (TK-49)] showed a Kd of 0.072 ± 0.018 nM. In turn, AUAAUGGUUUCUUAGACGUCGUUUUAGAGCUGUGUUGUUUCG (ssRNA) [ssRNA (TF-A)] yielded a Kd with GsSir2;GsAgo [2] of 0.042 ± 0.015 nM.

B4: dsRNA (TF-A/MZ-1185) (dsRNA)
RNA 1: AUAAUGGUUUCUUAGACGUCGUUUUAGAGCUGUGUUGUUUCG
RNA 2: B2 RNA
Consider B4, for which binding in the data set with GsSir2;GsAgo [2] was put at a Kd of 73 ± 29 nM.

B5: gRNA TF-A + target ssRNA MZ-1185 (dsRNA)
RNA 1: B4 RNA 1
RNA 2: B2 RNA
modifications: 5'-phosphate on guide
Consider B5, for which the Kd with GsSir2;GsAgo [4] worked out at 0.567 ± 0.112 nM; in the data set with GsSir2;GsAgo [3] it was 0.205 ± 0.058 nM.

B6: gRNA TF-A + target ssDNA MZ-949 (DNA:RNA)
RNA: B4 RNA 1
DNA: B1 DNA 2
modifications: 5'-phosphate on guide
For the molecule B6, in the data set with GsSir2APAZ;GsAgo, the binding result is on record as “no binding”. Further, the Kd turned out to be 0.14 ± 0.057 nM with GsSir2(D230A);GsAgo [5], 0.079 ± 0.007 nM with GsSir2;GsAgo [4], 0.038 ± 0.013 nM with GsSir2(D230A);GsAgo [6] and 0.02 ± 0.008 nM in the data set with GsSir2;GsAgo [3].

B7: gRNA TF-A + nsp-ssDNA MZ-589 (mixed)
RNA: B4 RNA 1
DNA: GGAGATGGGAAGTCATTAGATGTAGAACTTGAATGGCAACGG
modifications: 5'-phosphate on guide
In turn, B7 had a Kd with GsSir2;GsAgo [3] of 0.42 ± 0.231 nM.

B8: RNA/DNA heteroduplex (TF-A/MZ-949) (DNA:RNA)
RNA: B4 RNA 1
DNA: B1 DNA 2
Consider B8, for which the Kd with GsSir2;GsAgo [2] came to 4.31 ± 0.37 nM.

Values taken from article doi:10.1101/2021.12.14.472599.
